Measurements published in patent publication US20250368745A1 (published 2025).
Residue numbers refer to the chain shown, from its start. Names and notes keep the numbering of the source.

B1: SA302a HC-S31N (antibody, V domains shown)
VH: QVQLQESGPGLVKPSQTLSLTCTVSGYSITNDYNAHWIRQPPGKGLEWIGYIHYSGSTNYNPSLKSRVTISRDTSKNQFSLKLSSVTAADTAVYYCARNYGSIYVNYFDYWGQGTLVTVSS
VL: EIVLTQSPATLSLSPGERATLSCSASSSVSYMYWYQQKPGQAPRPLIYRTSNLASGIPARFSGSGSGTDFTLTISSLEPEDFAVYYCQQYHSYPTFGGGTKVEIK
B2: SA302a HC-Y33aM (antibody, V domains shown)
VH: B1 VH with N31S, Y33M
VL: B1 VL
B3: SA302a HC-N33bR (antibody, V domains shown)
VH: B1 VH with N31S, N34R
VL: B1 VL
B4: SA302a HC-Y33aN (antibody, V domains shown)
VH: B1 VH with N31S, Y33N
VL: B1 VL
B5: SA302a HC-S31T (antibody, V domains shown)
VH: B1 VH with N31T
VL: B1 VL
B6: SA302a HC-D33N (antibody, V domains shown)
VH: B1 VH with N31S, D32N
VL: B1 VL
B7: SA302a HC-N33bQ (antibody, V domains shown)
VH: B1 VH with N31S, N34Q
VL: B1 VL
B8: SA302a HC-S31P (antibody, V domains shown)
VH: B1 VH with N31P
VL: B1 VL
B9: SA302a HC-Y33aR (antibody, V domains shown)
VH: B1 VH with N31S, Y33R
VL: B1 VL
B10: SA302a HC-S31E (antibody, V domains shown)
VH: B1 VH with N31E
VL: B1 VL
B11: SA302a HC-D33H (antibody, V domains shown)
VH: B1 VH with N31S, D32H
VL: B1 VL
B12: SA302a HC-N33bV (antibody, V domains shown)
VH: B1 VH with N31S, N34V
VL: B1 VL
B13: SA302a HC-Y33aV (antibody, V domains shown)
VH: B1 VH with N31S, Y33V
VL: B1 VL
B14: SA302a HC-S31Y (antibody, V domains shown)
VH: B1 VH with N31Y
VL: B1 VL
B15: SA302a HC-S31H (antibody, V domains shown)
VH: B1 VH with N31H
VL: B1 VL
B16: SA302a HC-S31F (antibody, V domains shown)
VH: B1 VH with N31F
VL: B1 VL
B17: SA302a HC-D33I (antibody, V domains shown)
VH: B1 VH with N31S, D32I
VL: B1 VL
B18: SA302a HC-D33R (antibody, V domains shown)
VH: B1 VH with N31S, D32R
VL: B1 VL
B19: SA302a HC-S31G (antibody, V domains shown)
VH: B1 VH with N31G
VL: B1 VL
B20: SA302a HC-Y33aD (antibody, V domains shown)
VH: B1 VH with N31S, Y33D
VL: B1 VL
B21: SA302a HC-S31M (antibody, V domains shown)
VH: B1 VH with N31M
VL: B1 VL
B22: SA302a HC-S31L (antibody, V domains shown)
VH: B1 VH with N31L
VL: B1 VL
B23: SA302a HC-S31I (antibody, V domains shown)
VH: B1 VH with N31I
VL: B1 VL
B24: SA302a HC-Y33aE (antibody, V domains shown)
VH: B1 VH with N31S, Y33E
VL: B1 VL
B25: SA302a HC-S31Q (antibody, V domains shown)
VH: B1 VH with N31Q
VL: B1 VL
B26: SA302a HC-N33bF (antibody, V domains shown)
VH: B1 VH with N31S, N34F
VL: B1 VL
B27: SA302a HC-N33bH (antibody, V domains shown)
VH: B1 VH with N31S, N34H
VL: B1 VL
B28: SA302a HC-Y33aH (antibody, V domains shown)
VH: B1 VH with N31S, Y33H
VL: B1 VL
B29: SA302a HC-N33bY (antibody, V domains shown)
VH: B1 VH with N31S, N34Y
VL: B1 VL
B30: SA302a HC-Y33aS (antibody, V domains shown)
VH: B1 VH with N31S, Y33S
VL: B1 VL
B31: SA302a HC-N33bD (antibody, V domains shown)
VH: B1 VH with N31S, N34D
VL: B1 VL
B32: SA302a HC-N33bT (antibody, V domains shown)
VH: B1 VH with N31S, N34T
VL: B1 VL
B33: SA302a HC-Y33aL (antibody, V domains shown)
VH: B1 VH with N31S, Y33L
VL: B1 VL
B34: SA302a HC-S31A (antibody, V domains shown)
VH: B1 VH with N31A
VL: B1 VL
B35: SA302a HC-N33bG (antibody, V domains shown)
VH: B1 VH with N31S, N34G
VL: B1 VL

biological target: T1, human IL-18BP (human, UniProt O95998 31-194); test: BLI, apparent KD
T1 construct: UniProt printed as 095998; also called hIL-18BP
T1 sequence: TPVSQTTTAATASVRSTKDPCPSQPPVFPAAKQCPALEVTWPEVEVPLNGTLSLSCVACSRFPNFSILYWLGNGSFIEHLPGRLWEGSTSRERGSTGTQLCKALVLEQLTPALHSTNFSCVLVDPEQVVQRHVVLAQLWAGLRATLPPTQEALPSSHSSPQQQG

In order of rising Kd:
1. B25  0.56 nM
2. B15  0.57 nM
3. B21  0.61 nM
4. B16  0.79 nM
5. B34  0.92 nM
6. B1  0.98 nM
7. B22  0.98 nM
8. B23  1.01 nM
9. B5  1.02 nM
10. B31  1.03 nM
11. B14  1.11 nM
12. B12  1.36 nM
13. B10  1.53 nM
14. B32  1.63 nM
15. B19  1.64 nM
16. B6  1.66 nM
17. B35  2.21 nM
18. B3  2.23 nM
19. B18  2.24 nM
20. B33  2.36 nM
21. B27  2.91 nM
22. B11  2.99 nM
23. B2  3.05 nM
24. B28  4.11 nM
25. B8  4.37 nM
26. B30  4.38 nM
27. B13  4.49 nM
28. B17  4.97 nM
29. B26  5.24 nM
30. B4  5.92 nM
31. B7  6.01 nM
32. B29  6.15 nM
33. B24  8.65 nM
34. B9  8.72 nM
35. B20  10.5 nM
